Test results: patent US20090175866A1 (published 2009)

T1: FGFR1 (Table 1) (UniProt P11362 22-376, limits assumed)
T1 construct: the construct is not described
T1 sequence (looked up): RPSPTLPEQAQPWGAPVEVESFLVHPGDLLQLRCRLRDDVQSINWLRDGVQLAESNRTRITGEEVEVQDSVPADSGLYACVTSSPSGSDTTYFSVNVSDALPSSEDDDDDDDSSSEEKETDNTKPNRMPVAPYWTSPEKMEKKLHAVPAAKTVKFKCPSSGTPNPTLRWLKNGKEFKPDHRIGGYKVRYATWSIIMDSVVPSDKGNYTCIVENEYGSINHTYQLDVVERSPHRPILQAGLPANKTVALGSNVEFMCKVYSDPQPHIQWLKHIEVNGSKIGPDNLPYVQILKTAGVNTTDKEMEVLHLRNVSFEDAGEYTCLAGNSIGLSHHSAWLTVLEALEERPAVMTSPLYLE


Assays:
[1] = target: T2, wild type FGFR3 expressed on cells (UniProt P22607 23-806, limits assumed); assay: FACS
T2 construct: whole, on cells; the myeloma cell lines and patient cells are human; also called WT FGFR3; B9-FGFR3^WT
T2 sequence (P22607 23-806 limits assumed): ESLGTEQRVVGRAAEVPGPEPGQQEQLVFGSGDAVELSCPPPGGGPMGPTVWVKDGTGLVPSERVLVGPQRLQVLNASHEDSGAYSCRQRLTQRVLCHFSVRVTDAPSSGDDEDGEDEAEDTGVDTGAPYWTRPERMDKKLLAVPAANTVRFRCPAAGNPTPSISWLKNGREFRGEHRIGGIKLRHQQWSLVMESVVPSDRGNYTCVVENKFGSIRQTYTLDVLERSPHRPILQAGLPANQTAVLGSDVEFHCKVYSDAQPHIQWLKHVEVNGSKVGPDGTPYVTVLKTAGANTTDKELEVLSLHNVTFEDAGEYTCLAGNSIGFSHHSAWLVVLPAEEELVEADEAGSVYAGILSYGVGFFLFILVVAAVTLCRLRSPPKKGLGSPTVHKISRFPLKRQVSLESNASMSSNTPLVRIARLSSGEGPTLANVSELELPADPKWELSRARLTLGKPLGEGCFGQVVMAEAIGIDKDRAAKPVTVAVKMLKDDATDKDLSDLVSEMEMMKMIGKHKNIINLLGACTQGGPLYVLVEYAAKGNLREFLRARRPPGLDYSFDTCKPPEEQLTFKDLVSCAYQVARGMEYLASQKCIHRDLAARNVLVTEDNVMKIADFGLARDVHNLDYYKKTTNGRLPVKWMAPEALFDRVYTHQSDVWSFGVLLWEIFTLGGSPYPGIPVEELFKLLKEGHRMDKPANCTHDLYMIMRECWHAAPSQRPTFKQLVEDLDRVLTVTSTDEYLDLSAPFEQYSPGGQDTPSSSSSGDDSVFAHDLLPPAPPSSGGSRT

[2] = target: T2, wild type FGFR3 expressed on cells; assay: cell-based or functional assay
FGFR1 (Table 1) = target: T1, FGFR1 (Table 1); assay: BIAcore and/or FACS
[3] = target: FGFR3-Y373C expressed on B9 cells (UniProt P22607 23-806); assay: cell-based or functional assay
Chain of FGFR3-Y373C expressed on B9 cells (P22607 23-806 Y373C limits assumed): as the sequence (P22607 23-806 limits assumed) above, with Y351C counted along it

[4] = target: T2, wild type FGFR3 expressed on cells; assay: cell-based or functional assay; remark: listed apart in the source
[5] = target: FGFR3-F384L expressed on B9 cells (UniProt P22607 23-806); assay: cell-based or functional assay
Chain of FGFR3-F384L expressed on B9 cells (P22607 23-806 F384L limits assumed): as the sequence (P22607 23-806 limits assumed) above, with F362L counted along it

Kd [1]	IC50 FGFR3 (FGF9), FDCP-FGFR3 proliferation assay (dHLX format) [2]	Kd (FGFR1 (Table 1))	IC50 of FGF-stimulated growth of B9 cells expressing Y373C-FGFR3 [3]	IC50 of FGF stimulated proliferation of FDCP-FGFR3 cells (XTT) [4]	IC50 of FGF-stimulated growth of B9 cells expressing FGFR3 F384L [5]	Binder
< 1 nM	20 nM	29 nM				PRO-029 (Fab, V domains shown, HuCAL clone) VH: QVQLVQSGAEVKKPGASVKVSCKASGYTFTSYYMHWVRQAPGQGLEWMGWINPNSGGTNYAQKFQGRVTMTRDTSISTAYMELSSLRSEDTAVYYCARTWQYSYFYYLDGGYYFDIWGQGTLVTVSS VL: DIVLTQSPATLSLSPGERATLSCRASQSVSSSYLAWYQQKPGQAPRLLIYGASSRATGVPARFSGSGSGTDFTLTISSLEPEDFATYYCQQTNNAPVTFGQGTKVEIKR
1.4 nM	70 nM	32 nM				PRO-026 (Fab, V domains shown, HuCAL clone; the VL is headed 'MS-Pro-26-VL'; also called MS-Pro-26) VH: QVQLVQSGAEVKKPGASVKVSCKASGYTFTSYYMHWVRQAPGQGLEWMGWINPNSGGTNYAQKFQGRVTMTRDTSISTAYMELSSLRSEDTAVYYCARGYWYAYFTYINYGYFDNWGQGTLVTVSS VL: DIALTQPASVSGSPGQSITISCTGTSSDVGGYNYVSWYQQHPGKAPKLMIYDVSNRPSGVSNRFSGSKSGNTASLTISGLQAEDEADYYCQSYDNNSDVVFGGGTKLTVLG
	34 nM					PRO-055 (Fab, V domains shown) VH: QVQLVQSGAEVKKPGASVKVSCKASGYTFTSYYMHWVRQAPGQGLEWMGWINPNSGGTNYAQKFQGRVTMTRDTSISTAYMELSSLRSEDTAVYYCARSMNSTMYWYLRRVLFDHWGQGTLVTVSS VL: DIALTQPASVSGSPGQSITISCTGTSSDVGGYNYVSWYQQHPGKAPKLMIYDVSNRPSGVSNRFSGSKSGNTASLTISGLQAEDEADYYCQSYDMYNYIVFGGGTKLTVLG

The remaining lines, values behind:

Binder	Kd [1]	IC50 FGFR3 (FGF9), FDCP-FGFR3 proliferation assay (dHLX format) [2]	Kd (FGFR1 (Table 1))	IC50 of FGF-stimulated growth of B9 cells expressing Y373C-FGFR3 [3]	IC50 of FGF stimulated proliferation of FDCP-FGFR3 cells (XTT) [4]	IC50 of FGF-stimulated growth of B9 cells expressing FGFR3 F384L [5]
PRO-012 (Fab, V domains shown, HuCAL clone; the IC50 may be of the Fab-dHLX format) VH: QVQLKESGPALVKPTQTLTLTCTFSGFSLSTSGVGVGWIRQPPGKALEWLALIDWDDDKYYSTSLKTRLTISKDTSKNQVVLTMTNMDPVDTATYYCARYHSWYEMGYYGSTVGYMFDYWGQGTLVTVSS VL: DIELTQPPSVSVAPGQTARISCSGDALGDKYASWYQQKPGQAPVLVIYDDSDRPSGIPERFSGSNSGNTATLTISGTQAEDEADYYCQSYDFDFAVFGGGTKLTVLG	6.5 nM	58 nM				
PRO-054 (Fab, V domains shown, HuCAL clone) VH: QVQLVQSGAEVKKPGASVKVSCKASGYTFTSYYMHWVRQAPGQGLEWMGWINPNSGGTNYAQKFQGRVTMTRDTSISTAYMELSSLRSEDTAVYYCARNMAYTNYQYVNMPHFDYWGQGTLVTVSS VL: DIELTQPPSVSVAPGQTARISCSGDALGDKYASWYQQKPGQAPVLVIYDDSDRPSGIPERFSGSNSGNTATLTISGTQAEDEADYYCQSYDYFKLVFGGGTKLTVLG		45 nM	2.5 nM			
PRO-001 Fab (Fab, V domains shown, Human Fab from the HuCAL-Fab-1 library; also called human anti-FGFR3 Fab PRO-001; anti-FGFR3 antibody) VH: QVQLQQSGPGLVKPSQTLSLTCAISGDSVSSNSAAWNWIRQSPGRGLEWLGRTYYRSKWYNDYAVSVKSRITINPDTSKNQFSLQLNSVTPEDTAVYYCARSYYPDFDYWGQGTLVTVSS VL: DIELTQPPSVSVAPGQTARISCSGDALGDKYASWYQQKPGQAPVLVIYDDSDRPSGIPERFSGSNSGNTATLTISGTQAEDEADYYCQSYDGPDLWVFGGGTKLTVLG	0.7 nM	19 nM		~3 µg/mL	0.5 µg/mL	~3 µg/mL
PRO-002 (Fab, V domains shown, HuCAL clone; the IC50 may be of the Fab-dHLX format) VH: QVQLVQSGAEVKKPGASVKVSCKASGYTFTSYYMHWVRQAPGQGLEWMGWINPNSGGTNYAQKFQGRVTMTRDTSISTAYMELSSLRSEDTAVYYCARDFLGYEFDYWGQGTLVTVSS VL: DIELTQPPSVSVAPGQTARISCSGDALGDKYASWYQQKPGQAPVLVIYDDSDRPSGIPERFSGSNSGNTATLTISGTQAEDEADYYCQSYDYSADYVFGGGTKLTVLG	43 nM	360 nM				
PRO-021 (Fab, V domains shown, HuCAL clone; the IC50 may be of the Fab-dHLX format) VH: QVQLVQSGAEVKKPGSSVKVSCKASGGTFSSYAISWVRQAPGQGLEWMGGIIPIFGTANYAQKFQGRVTITADESTSTAYMELSSLRSEDTAVYYCARDNWFKPFSDVWGQGTLVTVSS VL: not shown	1.1 nM	50 nM				
PRO-024 (Fab, V domains shown) VH: QVQLVQSGAEVKKPGSSVKVSCKASGGTFSSYAISWVRQAPGQGLEWMGGIIPIFGTANYAQKFQGRVTITADESTSTAYMELSSLRSEDTAVYYCARVNHWTYTFDYWGQGTLVTVSS VL: not shown		70 nM				
